Results as given in patent US20030040461.
Positions count from the first letter of the chain named. Names may count otherwise.

T1: purified recombinant SLP-76
T1 sequence (Q13094 1-533, species assumed, looked up): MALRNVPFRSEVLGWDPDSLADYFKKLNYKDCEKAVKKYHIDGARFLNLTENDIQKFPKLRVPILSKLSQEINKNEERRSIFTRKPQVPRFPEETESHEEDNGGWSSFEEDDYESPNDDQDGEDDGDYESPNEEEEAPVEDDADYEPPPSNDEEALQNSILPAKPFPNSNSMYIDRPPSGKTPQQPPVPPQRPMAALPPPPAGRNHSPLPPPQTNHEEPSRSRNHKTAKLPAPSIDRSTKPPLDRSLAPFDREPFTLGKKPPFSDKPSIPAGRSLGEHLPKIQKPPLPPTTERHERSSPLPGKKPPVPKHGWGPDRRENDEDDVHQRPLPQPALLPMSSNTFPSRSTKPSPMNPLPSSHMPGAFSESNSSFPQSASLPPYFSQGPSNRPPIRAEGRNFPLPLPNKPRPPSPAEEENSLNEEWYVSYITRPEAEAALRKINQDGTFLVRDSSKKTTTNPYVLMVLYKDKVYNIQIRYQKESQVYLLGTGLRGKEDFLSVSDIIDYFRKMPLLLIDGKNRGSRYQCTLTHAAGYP

B1: FLAG-BTK wild-type (murine BTK with N-terminal 3XFLAG tag) (enzyme)
chain: MAAVILESIFLKRSQQKKKTSPLNFKKRLFLLTVHKLSYYEYDFERGRRGSKKGSIDVEKITCVETVIPEKNPPPERQIPRRGEESSEMEQISIIERFPYPFQVVYDEGPLYVFSPTEELRKRWIHQLKNVIRYNSDLVQKYHPCFWIDGQYLCCSQTAKNAMGCQILENRNGSLKPGSSHRKTKKPLPPTPEEDQILKKPLPPEPTAAPISTTELKKVVALYDYMPMNANDLQLRKGEEYFILEESNLPWWRARDKNGQEGYIPSNYITEAEDSIEMYEWYSKHMTRSQAEQLLKQEGKEGGFIVRDSSKAGKYTVSVFAKSTGEPQGVIRHYVVCSTPQSQYYLAEKHLFSTIPELINYHQHNSAGLISRLKYPVSKQNKNAPSTAGLGYGSWEIDPKDLTFLKELGTGQFGVVKYGKWRGQYDVAIKMIREGSMSEDEFIEEAKVMMNLSHEKLVQLYGVCTKQRPIFIITEYMANGCLLNYLREMRHRFQTQQLLEMCKDVCEAMEYLESKQFLHRDLAARNCLVNDQGVVKVSDFGLSRYVLDDEYTSSVGSKFPVRWSPPEVLMYSKFSSKSDIWAFGVLMWEIYSLGKMPYERFTNSETAEHIAQGLRLYRPHLASERVYTIMYSCWHEKADERPSFKILLSNILDVMDEES
modifications: N-terminal 3xFLAG tag
B2: FLAG-BTK E41K (gain of function mutant of murine BTK with N-terminal 3XFLAG tag) (enzyme)
chain: B1 chain with E41K
modifications: N-terminal 3xFLAG tag
B3: FLAG-BTK R28C (xid mutant of murine BTK with N-terminal 3XFLAG tag) (enzyme)
chain: B1 chain with R28C
modifications: N-terminal 3xFLAG tag
B4: FLAG-BTK K430R (dominant negative mutant of murine BTK with N-terminal 3XFLAG tag) (enzyme)
chain: B1 chain with K430R
modifications: N-terminal 3xFLAG tag

Test system: T1, purified recombinant SLP-76

Row | Protein | phosphorylation of SLP 76 (incorporation of phosphotyrosine into the substrate, IP kinase assay) | kinase activity
1 | B1 | addition of immunoprecipitated wild-type BTK resulted in phosphorylation of both BTK itself and the SLP 76 target | 
2 | B2 | Phosphorylation using extracts from the “gain of function” and dominant negative mutant cell contracts appeared to be reduced compared to the wild-type BTK | 
3 | B3 | Addition of BTK immunoprecipitated from the xid construct cell lysate resulted in hyperphosphorylation of the SLP 76 target | the kinase activity of BTK isolated from the xid mutant stable cell pool was significantly higher (approximately 10 fold)
4 | B4 | Phosphorylation using extracts from the “gain of function” and dominant negative mutant cell contracts appeared to be reduced compared to the wild-type BTK | 
